Tests used:
[1] = target: T1, cynomolgus 5T4 (Macaca mulatta (cynomolgus)); assay: flow cytometry, CHO cells transfected with cynomolgus 5T4
T1 construct: whole, on cells; stably transfected CHO cells; also called cyno5T4; cy5T4
Experimental: (§1) The potency of 5T4 antibodies in binding to cynomolgus 5T4 was determined by flow cytometry. CHO cells were stably transfected with […] (cynomolgus) 5T4. […] Samples were analysed either on a FACSCalibur or a FACSverse (BD Biosciences, Heidelberg, Germany) and mean fluorescence intensity (MFI) determined. […] To compare the EC50 values between human and cynomolgus 5T4, the cy5T4/hu5T4 ratio was calculated from the experiment with the full dose-response.

[2] = target: T2, human 5T4 on transfected cells (human, UniProt Q13641 32-420); assay: flow cytometry, 5T4-transfected A9 cells
T2 construct: whole, on cells; for B16 and A9 cells only a 5T4 construct is named; also called 5T4-transfected B16 cells; B16-5T4
T2 sequence (looked up): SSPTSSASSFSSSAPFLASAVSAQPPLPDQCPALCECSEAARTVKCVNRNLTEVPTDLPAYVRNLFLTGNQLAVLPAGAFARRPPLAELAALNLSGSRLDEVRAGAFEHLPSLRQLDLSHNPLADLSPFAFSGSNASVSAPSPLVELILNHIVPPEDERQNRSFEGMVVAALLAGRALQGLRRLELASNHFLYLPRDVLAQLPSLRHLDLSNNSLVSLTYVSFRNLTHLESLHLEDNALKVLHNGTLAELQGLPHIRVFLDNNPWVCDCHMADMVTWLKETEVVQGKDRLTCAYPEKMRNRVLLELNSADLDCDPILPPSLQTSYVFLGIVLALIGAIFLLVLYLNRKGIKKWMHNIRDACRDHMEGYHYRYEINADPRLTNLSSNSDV
Experimental: (§2) Analysis of 5T4 mAb binding with flow cytometry was performed using 5T4-transfected cell lines and as negative control, mock transfected cells. Three different transfected cell lines used were used for this study; B16, A9 and CHO, transfected either with a 5T4 construct or with an empty vector control construct. Cells were stained with 5T4 antibodies diluted in FACS buffer (PBS, 0.5% BSA and 0.02% NaN₃). […] Samples were analysed either on a FACSCalibur or a FACSverse (BD Biosciences, Heidelberg, Germany) and mean fluorescence intensity (MFI) determined.

[3] = target: T3, human/mouse 5T4 chimera E6; assay: flow cytometry, cells with 5T4 chimera; % positive cells over that of the best clone
T3 construct: on stably transfected CHO cells
Experimental: (§3) Epitope mapping was performed by investigation of loss of binding by the antibodies using a panel of human/mouse chimeric 5T4 constructs by flow cytometry. […] Two strategies were used for the epitope mapping as illustrated in FIG. 5. In one approach, seven human/mouse 5T4 chimeras were constructed based on dividing 5T4 into seven different domains (FIG. 5). By replacing each domain with the corresponding mouse sequence seven human/mouse 7 5T4 human/mouse chimeras were generated. The chimeras were generated using the human protein 5T4 sequence NP_006661.1 (reference mRNA sequence NM_006670.4) and the corresponding mouse sequence NP_035757.2 (reference mRNA sequence NM_011627.4). The human/mouse chimeric DNA constructs, as well as human and mouse wild-type 5T4, were cloned into pcDNA3.1 expression vectors. […] In the other approach, cells transfected with a human/mouse 5T4 chimera (Woods et al., 2002) was used, in which mouse sequence in amino acid 173-420 replaced the human sequence (FIG. 5). As controls human 5T4 and mouse 5T4-transfected cells were used.
(§4) For flow cytometric analysis, cells were stained with different 5T4 antibodies diluted in FACS buffer (PBS, 0.5% BSA). […] Samples were analysed by FACSverse (BD Biosciences, Heidelberg, Germany) and % positive cells were determined. To compensate for variations in % 5T4 positive cells in the various transfected populations, binding levels were normalized within each chimera by dividing % positive cells for each clone with % positive cells for the clones resulting in the highest % positive cells (% pos cellsclonX/% positive cellsₘₐₓ). A normalized value≤0.75 was defined as mAb binding being dependent on the replaced region, whereas a normalized value≤0.25 was defined as complete dependence.

[4] = target: T4, human/mouse 5T4 chimera E7; assay: as above
T4 construct: on stably transfected CHO cells
Experimental: as §3, §4

[5] = target: T5, human/mouse 5T4 chimera E4; assay: as above
T5 construct: on stably transfected CHO cells
Experimental: as §3, §4

[6] = target: T6, human/mouse 5T4 chimera E1; assay: as above
T6 construct: on stably transfected CHO cells
Experimental: as §3, §4

[7] = target: T7, human/mouse 5T4 chimera E2; assay: as above
T7 construct: on stably transfected CHO cells
Experimental: as §3, §4

[8] = target: T8, human/mouse 5T4 chimera E5; assay: as above
T8 construct: on stably transfected CHO cells
Experimental: as §3, §4

[9] = target: T9, human/mouse 5T4 chimera E3; assay: as above
T9 construct: on stably transfected CHO cells
Experimental: as §3, §4

[10] = target: T2, human 5T4 on transfected cells; assay: flow cytometry, 5T4-transfected B16 cells
Experimental: as §2

[11] = target: T1, cynomolgus 5T4; assay: flow cytometry, CHO cells with cynomolgus 5T4 against CHO cells with human 5T4
Experimental: as §1

[12] = target: T10, 5T4 (immobilised for SPR) (UniProt Q13641 32-355, limits assumed, biotinylated on the MASS-1 platform); assay: SPR Biacore 3000, 5T4 amine-coupled, mAb injected, 1:1 Langmuir
T10 construct: also called biotinylated 5T4
T10 sequence (looked up): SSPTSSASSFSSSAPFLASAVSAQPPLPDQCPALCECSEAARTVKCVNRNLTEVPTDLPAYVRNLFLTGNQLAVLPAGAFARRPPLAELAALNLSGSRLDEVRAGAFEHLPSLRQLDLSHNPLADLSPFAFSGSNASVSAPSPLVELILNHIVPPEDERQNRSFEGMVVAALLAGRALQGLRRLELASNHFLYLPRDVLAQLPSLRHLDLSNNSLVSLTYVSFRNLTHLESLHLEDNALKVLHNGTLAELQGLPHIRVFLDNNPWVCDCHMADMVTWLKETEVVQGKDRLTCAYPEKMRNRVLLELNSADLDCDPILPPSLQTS
Experimental: Binding kinetics of the 5T4-specific mAbs have been studied using two different SPR-based platforms, the Biacore 3000 (GE Healthcare) and the MASS-1 platform (Sierra Sensors). Briefly, 5T4 was captured at the sensor chip surface either via direct amine coupling (Biacore platform) or using a streptavidin coated chip and biotinylated 5T4 (MASS-1 platform). The different 5T4-specific mAbs were then injected over the chip in increasing concentrations and the association and dissociation rates studied in real time. A 1:1 Langmuir model was used for curve fitting.

[13] = target: T11, 5T4-Fc (human, UniProt Q13641 32-355, limits assumed); assay: ELISA, plates coated with 5T4-Fc
T11 construct: obtained from Peter L. Stern, University of Manchester; also called h5T4-Fc; recombinant 5T4
T11 sequence (looked up): T10 sequence (looked up)
Experimental: ELISA was performed using a standard protocol. Plates (#655074, Greiner Bio-One GmbH, Germany) were pre-coated with 0.5 μg/ml 5T4-Fc (obtained from Peter L. Stern, University of Manchester) overnight. 5T4 antibodies were diluted from 6 to 1.5×10⁻³ μg/ml in 1:4 dilutions and added in duplicates of 50 μl to each well. Binding was detected with rabbit anti-h kappa L-chain-HRP (P0129, Dako Denmark) and the ELISA was developed with SuperSignal ELISA PICO Chemiluminescent substrate (Thermo Scientific Pierce, Rockford, Ill. USA) for 2-10 minutes and read in an automated microplate based multi-detection reader (FLUOstar OPTIMA, Netherlands).

[14] = target: T12, mouse 5T4 (mouse, UniProt Q9Z0L0 32-426); assay: flow cytometry, mouse 5T4-transfected cells
T12 construct: whole, on cells; also called murine 5T4
T12 sequence (looked up): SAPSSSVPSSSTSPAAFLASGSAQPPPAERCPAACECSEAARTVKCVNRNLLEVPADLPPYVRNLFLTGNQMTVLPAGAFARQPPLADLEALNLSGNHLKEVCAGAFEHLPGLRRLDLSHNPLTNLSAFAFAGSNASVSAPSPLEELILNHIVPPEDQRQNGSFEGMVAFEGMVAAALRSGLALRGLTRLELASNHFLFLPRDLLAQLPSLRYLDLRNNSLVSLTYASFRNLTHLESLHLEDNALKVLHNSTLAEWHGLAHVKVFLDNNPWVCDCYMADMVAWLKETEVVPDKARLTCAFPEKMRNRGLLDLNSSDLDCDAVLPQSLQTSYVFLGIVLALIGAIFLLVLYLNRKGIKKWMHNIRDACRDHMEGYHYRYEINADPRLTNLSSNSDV

- EC50 [1]: 30.7 nM
- Normalized EC50 (to 1628) [2]: 0.4 ratio to 1628
- normalized % positive cells [3]: 0.03
- normalized % positive cells [4]: 0.88
- normalized % positive cells [5]: 1
- normalized % positive cells [6]: 0.89
- normalized % positive cells [7]: 0.9
- normalized % positive cells [8]: 0.84
- normalized % positive cells [9]: 0.93
- EC50 [10]: 1.4 nM
- Normalized EC50 (to 1628) [10]: 1.1 ratio to 1628
- Ratio EC50cyno-5T4/h5T4 [11]: 140 ratio
- kon [12]: 450000 M⁻¹ s⁻¹
- EC50 [13]: 0.56 nM
- binding result [14]: no binding
B1: 1212/1213 (antibody, IgG1, V domains shown)
VH: EVQLLESGGGLVQPGGSLRLSCAASGFTFSSYAMSWVRQAPGKGLEWVSYISSYGGYTSYADSVKGRFTISRDNSKNTLYLQMNSLRAEDTAVYYCARYHSGVLDYWGQGTLVTVSS
VL: DIQMTQSPSSLSASVGDRVTITCRASQSISSYLNWYQQKPGKAPKLLIYAASSLQSGVPSRFSGSGSGTDFTLTISSLQPEDFATYYCQQYYYHYLLTFGQGTKLEIK
notes: 5T4 antibody
